Reference: doi:10.64898/2025.12.18.695067

Biological target: DNAJB1 (recombinant, as used in SPR) (human) (UniProt P25685)
Experiment: SPR

Chain of UniProt P25685 (P25685 whole entry): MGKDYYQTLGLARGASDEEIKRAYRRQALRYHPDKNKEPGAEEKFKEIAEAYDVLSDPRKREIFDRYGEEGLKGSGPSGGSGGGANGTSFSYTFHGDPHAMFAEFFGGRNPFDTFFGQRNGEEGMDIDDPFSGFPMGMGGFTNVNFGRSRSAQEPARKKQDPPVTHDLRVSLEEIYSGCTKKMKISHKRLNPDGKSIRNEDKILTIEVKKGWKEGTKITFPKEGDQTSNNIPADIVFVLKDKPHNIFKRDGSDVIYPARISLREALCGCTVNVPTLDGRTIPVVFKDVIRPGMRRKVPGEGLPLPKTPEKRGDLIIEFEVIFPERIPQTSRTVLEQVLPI

Substance	Kd [nM]
K27-linked diubiquitin (chemically synthesized; tag not told for the experiment) (from UniProt P0CG48 1-76; P0CG48 1-76)	1830
K27-linked tetraubiquitin (synthetic) (from UniProt P0CG48 1-76)	3420
